# The DeepSol protein solubility set
# Experiment: soluble on expression in E. coli; label from the status in PepcDB or PDB records
row,Sequence,soluble on expression in E. coli
1,MAHHHHHHMSESPMCLFIACSTRDNTSREYIYTILKNRLLGSHVCIDTNILDVPTNLKFCSFDDLLKCADDLQKYDSYAYGCLKKIEKLAKEYDENIELKIIYQRQHINIDQYIRRFTWDDAKYPRNRSLTDTIDVMVNNITKLSDEIHIKSSMLNDLKEKKKKDIPKTDTNNFFLKNLNEILTPQTVSQADFMETEYLTTLIAYIPKNSVDEWLASYEKFSQYVVPRSTEQFKGLVDKDGNTLWKVYVFKKFAESFKEAAKLKKFVVKSFKYDEQKYNDVMESRTKVEAEIIRQETFLRRMCLAAFSDIFSAFIHINILRVFCESVLRFGVPPNFASFSIRINGESKEKKVRKKLYDIFSSTDSIGKNYIKRSDENDEEIYPYVSVSFKI,not soluble
2,MAHHHHHHMPDDRRRASRTDDALVAHRPADSASPVERRTRVDPRTHTKSLYQRGRDGSEMYASYYNSNDDPAFQERFNRHSNGNAFVQSAQFTYVSHGGCGGRNHTVVKERQRPVVVEEPDDADRHEASTDSGNNANVHAKHKDKEKRRSSKQDPIVEEPDSEDDYNDADSRAYRRGGKKGEFGSHPDALEFWRDPWGMESIMAEMMQPPLGFGDAFPFTSRRAPAQRRLKSPSVSNESKWQLSPHTRGGVMSSPFTGDLFGTGGPESPFRMMEAMQYHMHQQRAAMFGGVDPFRHFM,not soluble
3,MELKHSISDYTEAEFLEFVKKIARAEGATECDDNKLVREFERLTEHPDGSDLIYYPRDDREDSPEGIVKEIKEWRAANGKSGFKQG,soluble
4,MSLSYTEEWVTARARGAYEHGRASFDVRPERTALLVIDMQDEFVRPGWSPYWVPAATRMAPRLRRLIEGCRSAAVPVIWSIFDDTHLGLDRPKALGYLPHADTDWRRPGPAEVWDQMGRRPDEALIRKPSYGAFYDTPLDTMLRNLGRDTVIVTGTLTNYCCGTTARQAYERGYKVVFGADVTATDDESRQEPELAVLRKGFALVLTAEEITNQLAEGHHHHHH,soluble
5,MTYCHQFLSNLSSLTRFRLHTGNVNGYTQLKVRRFETSAEELAACLDLQLSSNPIADDFKENSCLLLCDNDHIDNYERDEIKITMKVFLSAWDVQQIDQAVTSLKEQLKTKDIEVLILSFPELDLIDGESEEDENNRWFEKVKPLYTYMEKLVETSEIASIGVSDFSARQLKTIIDHFDVKPSINHVRLDGCCQVPPELQALANDNDVQLLVHNDPTPFPTNNIFKTFCEIDSGSQKAVCSPLFETTWLSRYSVWVRKRSIMTSKGYIVQFFRKHD,not soluble
6,MSNTVTLRADGRLFTGWTSVSVTRSIESVAGYFELGVNVPPGTDLSGLAPGKKFTLEIGGQIVCTGYIDSRRRQMTADSMKITVAGRDKTADLIDCAAVYSGGQWKNRTLEQIARDLCAPYGVTVRWELSDKESSAAFPGFTLDHSETVYEALVRASRARGVLMTSNAAGELVFSRAASTATDELVLGENLLTLDFEEDFRDRFSEYTVKGYARANGAEGDDIDAKSIVSRKGTATDSDVTRYRPMIIIADSKITAKDAQARALREQRRRLAKSITFEAEIDGWTRKDGQLWMPNLLVTIDASKYAIKTTELLVSKVTLILNDQDGLKTRVSLAPREGFLVPVESDRKNRKGGDSNGGIDALVEDYYRRHPEKTPPWKE,soluble
7,MNIAVASGKGGTGKTTVAVNLAASYAMQGLPVTLVDCDVEEPNAHLFVDARWQVRSLCGVPVPAIDPDRCLGESCRRCVEACRFKALAMLGGELLVFAELCHGCGLCELVCPAGVVGTASRPVGEVRQGVASCHVHGETCHMAFRDGVLRVGEAMATPLIKAVKRTAEDANATSHAGYGVTLWDCPPGTACATINALDEADFVVLVAESTAFGLHDLRLAVGLVCHLGLPHGIVINRFGMGDDRVATWAASEGIDVLGRLPFSLEAASRNAGGGLLLDASHDLEAAYRDLGARLLEKGIRSLEHHHHHH,not soluble
8,MEKQNLPVVVVGAGPVGLAAAAHLVERGIEPLVLEAGASAATAVRDWAHVRLFSPWAEVTDPAAEKLLAPTGWLRPDGATYPTGGDWAERYLQPLADVLGDQVRYGATVTGVARAGRDRIVDSGREEQPFTVHIETADGGEERIAARAVIDAGRRGVRHADRLEHHHHHH,soluble
9,MKKLLFFTLLLFGVLSVRSLADGCNAQVCMCPNGGYVTTGQYCSTSSGESWIITPIIGTVAIDPATGKWASISNTKDRKEAKNDVLERCGSDCKVFMVDSKRCVGVAYSKSDKIIGSDSATDNFGGIGYNTRVERSNEKALKKCEKNGGKDCKIIANVCAVEGTTKY,not soluble
10,MGSDKIHHHHHHMDMTTYPIYLVGGSKGGVGKSFVALALADYLLRQNIRAALVETDTSNPDVMKAVQDEMRCIAYNLDDADGWIGLVNFCDEQRDAAIVVNTAARSQTGVEQFGATLAGALGELQRRLVVLWVINRQRDSLELLHAFSKTFPDAVTNVVRNGYFGPAEKFTLYQGSQLRRSIEARGHSLDFPDLADRVADELRSQRMSIRKAAETMHIGERVELMRWRSLCDAMFARVTVDG,not soluble
11,MGQMFNPPHPGETLREDVLPAFNLTVTEAANQLGVSRVTLSRVLNGTSAISPEMALRIEEWLGVENGGRADLWLGMQTSYDLWKARERVHQQPLSVRSVKHKSTEMALR,not soluble
12,MAIVKKKKVSAASKAATEKPEVKKAVKRPVAETEAVTPKKKKLVKKVKKSAKKAHEEEPIEQVEKLQLIDDDEDGLEGLSFPGSDDEDLRDDYSDDDSDAGDHLPIEKKSAALDKQKEKIIAEGEEELQLNIANQATFELPTVEEIENEMKSVPNLEIVKQRIADVIQVLGDFKNRRDPQKSRENYVEVLKKDLCSQYGYNDYLMGKFMDLFPNGAELLEFLEANDNPRPVTIRANSLKVKRRDLAKNLINRGMNVDPAADWTKVGLVVYDSQVPVGATPEYLAGHYMIQGLNSLLPVMALAPQPGDRVLDMCSAPGGKTSHIAALMKNSGVLFANDANFTRCRAIIGNLHRLGVNNTVVCNLGGEEFSKIRPNGFDRILLDAPCSGTGVIWKDQSVKTSKDSQDVQRRHTMQRQLILSALDSLDANSPNGGYLVYSTCSVLVEENEAVVNFLLERRHCELVPTGLSIGVDGYTRFRDYRFHPSLSMTKRYYPHVHNIDGFYVAKIKKLSNAKMSKQGVMEKEKEKAAQKSQNKKNKAEAEASESSDDEEEKKNGVEVNGQKKPAKKQQQKKQKADGDDSDDDNNAPMKNIGSGARANKKRRNQKKAAEKQAAVKEDDGFNTVGNVKRAKKPTQFKSKVPKRAAARTGAKSVKNRRKKMLAKQQ,not soluble
13,MFEKVRKIIAEQLGIEEDEITMESSFIDDLGADSLDIVELIMALEEEFDLEIPDSEAEKITTVGDVVEYIKNNS,not soluble
14,MSLFFTFMRGVVRVILFVINGNAHYENKEKLPKDQNYVLVAPHRTWWEPLYLAVAGSPKKFSFMAKKELFKNPVLRFILKHANAFPVDREKPGPSAIKTPVKILKNSDLSLIMFPSGTRHSSELKGGVALIAKMGRVPIVPSVYQGPLTLKELFKRKKVTVRFGEPIDISDIKKMDKDGLAEVERRMQEAFDQLDKEIDPTFKYESTEEGHHHHHH,soluble
15,MKIMEINVEHILDCLDQYGKGELTEEQLVKALTYDEKMFLIMHQGLLGENSDSEDDFDVQDWLEEEESFFMVVEVNENLCRQAESVLEEIGVEMPDAIEGFLNQLVEKKQFPVVINS,not soluble
16,MKFLLLLFPVLLLAKSPEKRSKVGIDEDNFLQLLEVEIARTLRSELSSDDDLQNLEGSSDSPEDDYLKKYDLILSSSTTSPKPITTTETTTRSTTTTTTTTTTTAAPSTTTSTVKITPKPLRSTPQCVPEKDCYKDSECPSGKCFGSELGLCDCNACITNKKCSSDLDCGGLRNGCDSNGNCDCVNAFHSHGYKLFVKVLLTFCHQTKCTKTSDNCYGLPCRVGKCKCFVGSLSVVTMCSRVLFVLLSTFTVLAGASVTCDLTQKPSTWAQVHAKNIFFNAYEPDNYFSLNGFCVNNDFMSHTLTYSSHVKLADSSVKVKTDVALNTNFDASLSNCGKDVSQVQWCQSHCQDKTLENVIVSSAVINGSLPLALAQQVFSTIGSPNDTSIASMQVDLNSQGVRIDYDYYDDFNFCSVYVKVKRPSMFPYALFITVQKIVGV,not soluble
17,MSLNTTFTKEDGTEVVIPFNGSQNGHPENEEPEVEEAAEPSSSVETLCGATRGDIIVMKHTTKALTELIERLLHSDEFEVRRCSNGQIISQGRCNGTTPGNGIGGGGASSEELEKALKDRDAARAEADKLHANYATLFASFNTVREAANDIRGEYEDARDKLKLAAAEVDEWQAKFLAVKDNANSELERASVEYDDLLRSHDENTKGLRLRVKRQEIELSSKNDEIKVLTNRVSELSQICDQLLNDVDVSDGMSVISTDA,not soluble
18,MKLTDSVLRSFRVAKVFRENSDKINCFDFSSNGETVISSSDDDSIVLYDCQEGKPKRTLYSKKYGVDLIRYTHAANTVVYSSNKIDDTIRYLSLHDNKYIRYFPGHNKRVVALSMSPVDDTFISGSLDKTIRLWDLRSPNCQGLMHLQGKPVCSFDPEGLIFAAGVNSEMVKLYDLRSFDKGPFATFKLQYERTCEWTGLKFSNDGKLILVSTNGGTLRVLDAFKGAVLHSFGGYNNSKGVILEAPFTPDSQFIMIGSEDGKIHVWNAESGMKVALLDGKHTGPVTCLQFNPKFMTFASACSNMAFWLPTIDD,not soluble
19,MTDSKYFTTNKKGEIFELKAELNNEKKEKRKEAVKKVIAAMTVGKDVSSLFPDVVNCMQTDNLELKKLVYLYLMNYAKSQPDMAIMAVNSFVKDCEDPNPLIRALAVRTMGCIRVDKITEYLCEPLRKCLKDEDPYVRKTAAVCVAKLHDINAQMVEDQGFLDSLRDLIADSNPMVVANAVAALSEISESHPNSNLLDLNPQNINKLLTALNECTEWGQIFILDCLSNYNPKDDREAQSICERVTPRLSHANSAVVLSAVKVLMKFLELLPKDSDYYNMLLKKLAPPLVTLLSGEPEVQYVALRNINLIVQKRPEILKQEIKVFFVKYNDPIYVKLEKLDIMIRLASQANIAQVLAELKEYATEVDVDFVRKAVRAIGRCAIKVEQSAERCVSTLLDLIQTKVNYVVQEAIVVIRDIFRKYPNKYESIIATLCENLDSLDEPDARAAMIWIVGEYAERIDNADELLESFLEGFHDESTQVQLTLLTAIVKLFLKKPSETQELVQQVLSLATQDSDNPDLRDRGYIYWRLLSTDPVTAKEVVLSEKPLISEETDLIEPTLLDELICHIGSLASVYHKPPNAFVEGSHGIHRK,soluble
20,MKKQLLIVDGYNMIGAWPELVQLKKQERLEDARELLLSRLSNYAKYEGLEIIVVFDAQLVPGIQQTYKKYLLTVVFTKEDETADSYIERLAGEKNDRLTQVTVATSDLAEQWVVFSQGALRTSANELYKAVQKTEKTIAIHATDIHFQQFRRNSPWNVEQLSKLSEKLEELSQKKD,not soluble
21,MSLKQKLSHPYLAKHISAPKIDEDKLLLFHALFEEADIKNNDRENYIVTAMLVQSALDTHDEVTTARVIKRDENKNRQLTVLAGDYFSGLYYSLLSEMKDIYMIRTLATAIKEINEHKIRLYDRSFKDENDFFESVGIVESALFHRVAEHFNLPRWKKLSSDFFVFKRLMNGNDAFLDVIGSFIQLGKTKEEILEDCFKKAKNSIESLLPLNSPIQNILINRLKTISQDQTYHQKEGHHHHHH,not soluble
22,MSLGNPAAMLAAYNTSTQVAPQPQLGPRAGEVQLSSEQQAMIDYVLAGKDVIVDATVGSGKTTAIQRLCSIMGADHDVLYLTYSKLLKVDAQQRVRGAKVQNYHGIVYPHLLKAGIKCGISESIREFNKNFKHISRTFPSYDLLVIDEYQDINEDYAELLRNIKSVNPLMQIVMVGDLEQKVRSDTEGHHHHHH,not soluble
